Source: paper PMC8384837, “Expanding the binding specificity for RNA recognition by a PUF domain”

Legend:
[1] = target: Pumilio-1 PUF domain wild type (human, UniProt Q14671 828-1168); experiment: EMSA; 10 mM HEPES pH 7.3, 50 mM NaCl, 2 mM DTT, 0.05% Tween 20, 0.1 mg/ml BSA, 0.1 mg/ml yeast tRNA; ~10 nM RNA, 0-1 uM protein, 1 h on ice; 1.2% agarose gel, 1x TBE, room temperature; settings: protein: recombinant; tags: N-terminal GST (pGEX-6P-1) removed by HRV3C protease; label: 5' 32P
[2] = target: T1, PUM1 PUF domain R3-THE R4-TFR (Homo sapiens, UniProt Q14671 828-1176, C935T;R936H;Q939E;N971T;H972F;Q975R); experiment: EMSA; 10 mM HEPES pH 7.3, 50 mM NaCl, 2 mM DTT, 0.05% Tween 20, 0.1 mg/mL BSA, 0.1 mg/mL tRNA; on ice; 10 nM RNA, 0-1 uM protein; settings: tags: GST cleaved (HRV3C); label: 32P
[3] = target: PUM1 PUF domain R1-QFR R2-VFQ (Homo sapiens, UniProt Q14671 828-1176, S863Q;R864F;Q867R;N899V;Y900F); experiment: as above; settings: tags: GST cleaved (HRV3C); label: 32P
PUM1 PUF domain [4] = target: T2, PUM1 PUF domain (Homo sapiens, UniProt Q14671 828-1176); experiment: as above; settings: tags: GST cleaved (HRV3C); label: 32P
PUM1 PUF domain [5] = target: T2, PUM1 PUF domain; experiment: as above; settings: tags: GST cleaved (HRV3C); label: 32P; remark: listed apart in the source
[6] = target: T1, PUM1 PUF domain R3-THE R4-TFR; experiment: yeast three-hybrid, YBZ-1, SC-Leu-His + 0.5 mM 3-AT, 4 days; settings: tags: N-Gal4 AD-HA kept; label: inside an RPR1-promoter hybrid RNA with tandem MS2 sites
Summary of the method: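 The interaction score is the log change in variant frequency from input to selection. Scores were computed in log2 with a pseudocount of 1 for absent variants, using Illumina sequencing of PCR-amplified repeat regions. The input came from four days on SC-Leu and the selection from four days on SC-Leu-His + 0.5 mM 3-AT. The cells were strain YBZ-1 (LexA–MS2 coat fusion, HIS3 reporter) co-expressing Pumilio-1 PUF domain libraries and matching RNA elements from a centromeric plasmid.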

T2 sequence (Q14671 828-1176): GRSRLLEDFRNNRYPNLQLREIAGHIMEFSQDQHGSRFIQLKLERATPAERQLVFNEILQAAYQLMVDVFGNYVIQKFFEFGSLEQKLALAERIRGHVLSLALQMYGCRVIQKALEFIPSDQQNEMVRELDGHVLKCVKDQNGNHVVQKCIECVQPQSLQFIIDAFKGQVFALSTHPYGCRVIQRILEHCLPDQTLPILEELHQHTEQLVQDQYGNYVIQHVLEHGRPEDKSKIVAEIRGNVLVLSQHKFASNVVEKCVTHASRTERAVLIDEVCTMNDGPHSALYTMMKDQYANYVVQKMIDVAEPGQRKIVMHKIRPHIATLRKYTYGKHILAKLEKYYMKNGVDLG
Sequence of Pumilio-1 PUF domain wild type (Q14671 828-1168): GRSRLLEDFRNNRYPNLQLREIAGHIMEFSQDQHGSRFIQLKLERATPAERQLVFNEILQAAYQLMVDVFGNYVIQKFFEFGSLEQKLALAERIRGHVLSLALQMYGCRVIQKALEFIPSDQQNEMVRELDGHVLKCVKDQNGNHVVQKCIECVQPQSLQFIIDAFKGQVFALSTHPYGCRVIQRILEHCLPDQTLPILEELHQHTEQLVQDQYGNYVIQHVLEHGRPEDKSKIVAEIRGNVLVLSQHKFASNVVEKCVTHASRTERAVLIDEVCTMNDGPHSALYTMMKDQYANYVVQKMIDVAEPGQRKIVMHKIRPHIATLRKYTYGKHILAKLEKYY
T1 sequence (Q14671 828-1176 C935T/R936H/Q939E/N971T/H972F/Q975R): as the sequence (Q14671 828-1176) above, with C108T, R109H, Q112E, N144T, H145F, Q148R counted along it
Sequence of PUM1 PUF domain R1-QFR R2-VFQ (Q14671 828-1176 S863Q/R864F/Q867R/N899V/Y900F): as the sequence (Q14671 828-1176) above, with S36Q, R37F, Q40R, N72V, Y73F counted along it

B1: wild-type NRE RNA (ssRNA)
RNA: GGUAAGUGUAAAUAGUCUGCAU
Kd [1]: ~80 nM

B2: QFR/VFQ target RNA (ssRNA)
RNA: GGUAAGUGUAAAACGUCUGCAU
binding result [1]: no binding

B3: UGUAAAUA (ssRNA)
RNA: GGUAAGUGUAAAUAGUCUGCAU
qualitative [2]: > 1000 nM
qualitative [3]: > 1000 nM
Kd (PUM1 PUF domain [4]): ~80 nM

B4: UGUAAAAC (ssRNA)
RNA: GGUAAGUGUAAAACGUCUGCAU
qualitative (PUM1 PUF domain [5]): > 1000 nM

B5: UGUACGUA (ssRNA)
RNA: GGUAAGUGUACGUAGUCUGCAU
qualitative (PUM1 PUF domain [5]): > 1000 nM

B6: UGUACGUA (ssRNA)
RNA: GGCUAGAACUAGUGGAUCCCCCGGCGCCCGGCGGCUCGAGCCCGGGUAAGUGUACGUAGUCUGCAUGCCGCCGGGCGCCAUGCCUGCAGGUCGACUCUAGAAAACAUG
binding signal [6]: 6.65 log2 enrichment (interaction score)
